Experiments:
[1] = target: T1, HLA-A*02:01 in complex with the EGFR peptide … conjugated with osimertinib (human, osimertinib covalently bound to Cys); assay: yeast display
T1 construct: also called HLA-A*02:01_EGFR-osimertinib; osimertinib-EGFR/HLA-A*02

[2] = target: T2, HLA-A*01:01 in complex with the BTK peptide … conjugated with Ibrutinib (human, ibrutinib covalently bound to Cys); assay: phage display selection; MBBA
T2 construct: also called HLA-A*01:01_BTK-Ibrutinib

| Binder | binding result [1] | binding result [2] |
| --- | --- | --- |
| EO_Q01 (scFv, V domains shown, yeast-display scFv) VH: EVQLVESGGGLVQPGGSLRLSCAASGFTISSSYIHWVRQAPGKGLEWVAYISPSYGSTSYADSVKGRFTISADTSKNTAYLQMNSLRAEDTAVYYCARELVTMTADYWGQGTLVTVSS VL: DIQMTQSPSSLSASVGDRVTITCRASQSVSSAVAWYQQKPGKAPKLLIYSASSLYSGVPSRFSGSRSGTDFTLTISSLQPEDFATYYCQQYSHWPITFGQGTKVEIKR | binds | – |
| EO_Q09 (scFv, V domains shown, yeast-display scFv) VH: EVQLVESGGGLVQPGGSLRLSCAASGFTISSSYIHWVRQAPGKGLEWVAYISPSYGSTSYADSVKGRFTISADTSKNTAYLQMNSLRAEDTAVYYCAREEVTMTADYWGQGTLVTVSS VL: DIQMTQSPSSLSASVGDRVTITCRASQSVSSAVAWYQQKPGKAPKLLIYSASSLYSGVPSRFSGSRSGTDFTLTISSLQPEDFATYYCQQYSHWPITFGQGTKVEIKR | binds | – |
| EO_Q15 (scFv, V domains shown, yeast-display scFv) VH: EVQLVESGGGLVQPGGSLRLSCAASGFTISSSYIHWVRQAPGKGLEWVAYISPSYGSTSYADSVKGRFTISADTSKNTAYLQMNSLRAEDTAVYYCARELIEMTTDYWGQGTLVTVSS VL: DIQMTQSPSSLSASVGDRVTITCRASQSVSSAVAWYQQKPGKAPKLLIYSASSLYSGVPSRFSGSRSGTDFTLTISSLQPEDFATYYCQQYSHWPITFGQGTKVEIKR | binds | – |
| EO_Q08 (scFv, V domains shown, yeast-display scFv) VH: EVQLVESGGGLVQPGGSLRLSCAASGFTISSSYIHWVRQAPGKGLEWVAYISPSYGSTSYADSVKGRFTISADTSKNTAYLQMNSLRAEDTAVYYCARELTEMTTDYWGQGTLVTVSS VL: DIQMTQSPSSLSASVGDRVTITCRASQSVSSAVAWYQQKPGKAPKLLIYSASSLYSGVPSRFSGSRSGTDFTLTISSLQPEDFATYYCQQYSSWPITFGQGTKVEIKR | binds | – |
| EO_Q24 (scFv, V domains shown, yeast-display scFv) VH: EVQLVESGGGLVQPGGSLRLSCAASGFTISSSYIHWVRQAPGKGLEWVAYISPSYGSTSYADSVKGRFTISADTSKNTAYLQMNSLRAEDTAVYYCAREYVTMALDYWGQGTLVTVSS VL: DIQMTQSPSSLSASVGDRVTITCRASQSVSSAVAWYQQKPGKAPKLLIYSASSLYSGVPSRFSGSRSGTDFTLTISSLQPEDFATYYCQQYSEWPETFGQGTKVEIKR | binds | – |
| EO_Q12 (scFv, V domains shown, yeast-display scFv) VH: EVQLVESGGGLVQPGGSLRLSCAASGFTISSSYIHWVRQAPGKGLEWVAYISPSYGSTSYADSVKGRFTISADTSKNTAYLQMNSLRAEDTAVYYCARELTTMSIDYWGQGTLVTVSS VL: DIQMTQSPSSLSASVGDRVTITCRASQSVSSAVAWYQQKPGKAPKLLIYSASSLYSGVPSRFSGSRSGTDFTLTISSLQPEDFATYYCQQYASWPITFGQGTKVEIKR | binds | – |
| EO_Q05 (scFv, V domains shown, yeast-display scFv) VH: EVQLVESGGGLVQPGGSLRLSCAASGFTISSSYIHWVRQAPGKGLEWVAYISPSYGSTSYADSVKGRFTISADTSKNTAYLQMNSLRAEDTAVYYCAREEVTMSIDYWGQGTLVTVSS VL: DIQMTQSPSSLSASVGDRVTITCRASQSVSSAVAWYQQKPGKAPKLLIYSASSLYSGVPSRFSGSRSGTDFTLTISSLQPEDFATYYCQQYAEWPITFGQGTKVEIKR | binds | – |
| EO_Q10 (scFv, V domains shown, yeast-display scFv) VH: EVQLVESGGGLVQPGGSLRLSCAASGFTISSSYIHWVRQAPGKGLEWVAYISPSYGSTSYADSVKGRFTISADTSKNTAYLQMNSLRAEDTAVYYCARELIEMTPDYWGQGTLVTVSS VL: DIQMTQSPSSLSASVGDRVTITCRASQSVSSAVAWYQQKPGKAPKLLIYSASSLYSGVPSRFSGSRSGTDFTLTISSLQPEDFATYYCQQYSGWPITFGQGTKVEIKR | binds | – |
| EO_Q06 (scFv, V domains shown, yeast-display scFv) VH: EVQLVESGGGLVQPGGSLRLSCAASGFTISSSYIHWVRQAPGKGLEWVAYISPSYGSTSYADSVKGRFTISADTSKNTAYLQMNSLRAEDTAVYYCARESITMTKDYWGQGTLVTVSS VL: DIQMTQSPSSLSASVGDRVTITCRASQSVSSAVAWYQQKPGKAPKLLIYSASSLYSGVPSRFSGSRSGTDFTLTISSLQPEDFATYYCQQYSHWPITFGQGTKVEIKR | binds | – |
| EO_Q20 (scFv, V domains shown, yeast-display scFv) VH: EVQLVESGGGLVQPGGSLRLSCAASGFTISSSYIHWVRQAPGKGLEWVAYISPSYGSTSYADSVKGRFTISADTSKNTAYLQMNSLRAEDTAVYYCAREEVTMTPDYWGQGTLVTVSS VL: DIQMTQSPSSLSASVGDRVTITCRASQSVSSAVAWYQQKPGKAPKLLIYSASSLYSGVPSRFSGSRSGTDFTLTISSLQPEDFATYYCQQYSDWPITFGQGTKVEIKR | binds | – |
| EO_Q02 (scFv, V domains shown, yeast-display scFv) VH: EVQLVESGGGLVQPGGSLRLSCAASGFTISSSYIHWVRQAPGKGLEWVAYISPSYGSTSYADSVKGRFTISADTSKNTAYLQMNSLRAEDTAVYYCAREYTTMSIDYWGQGTLVTVSS VL: DIQMTQSPSSLSASVGDRVTITCRASQSVSSAVAWYQQKPGKAPKLLIYSASSLYSGVPSRFSGSRSGTDFTLTISSLQPEDFATYYCQQYSAWPETFGQGTKVEIKR | binds | – |
| EO_Q18 (scFv, V domains shown, yeast-display scFv) VH: EVQLVESGGGLVQPGGSLRLSCAASGFTISSSYIHWVRQAPGKGLEWVAYISPSYGSTSYADSVKGRFTISADTSKNTAYLQMNSLRAEDTAVYYCAREYVTMALDYWGQGTLVTVSS VL: DIQMTQSPSSLSASVGDRVTITCRASQSVSSAVAWYQQKPGKAPKLLIYSASSLYSGVPSRFSGSRSGTDFTLTISSLQPEDFATYYCQQYSAWPETFGQGTKVEIKR | binds | – |
| EO_Q23 (scFv, V domains shown, yeast-display scFv) VH: EVQLVESGGGLVQPGGSLRLSCAASGFTISSSYIHWVRQAPGKGLEWVAYISPSYGSTSYADSVKGRFTISADTSKNTAYLQMNSLRAEDTAVYYCAREYVTMALDYWGQGTLVTVSS VL: DIQMTQSPSSLSASVGDRVTITCRASQSVSSAVAWYQQKPGKAPKLLIYSASSLYSGVPSRFSGSRSGTDFTLTISSLQPEDFATYYCQQYSHWPETFGQGTKVEIKR | binds | – |
| EO_Q03 (scFv, V domains shown, yeast-display scFv) VH: EVQLVESGGGLVQPGGSLRLSCAASGFTISSSYIHWVRQAPGKGLEWVAYISPSYGSTSYADSVKGRFTISADTSKNTAYLQMNSLRAEDTAVYYCARESVTMSADYWGQGTLVTVSS VL: DIQMTQSPSSLSASVGDRVTITCRASQSVSSAVAWYQQKPGKAPKLLIYSASSLYSGVPSRFSGSRSGTDFTLTISSLQPEDFATYYCQQYSAWPITFGQGTKVEIKR | binds | – |
| EO_Q22 (scFv, V domains shown, yeast-display scFv) VH: EVQLVESGGGLVQPGGSLRLSCAASGFTISSSYIHWVRQAPGKGLEWVAYISPSYGSTSYADSVKGRFTISADTSKNTAYLQMNSLRAEDTAVYYCAREYVTMALDYWGQGTLVTVSS VL: DIQMTQSPSSLSASVGDRVTITCRASQSVSSAVAWYQQKPGKAPKLLIYSASSLYSGVPSRFSGSRSGTDFTLTISSLQPEDFATYYCQQYSHWPITFGQGTKVEIKR | binds | – |
| EO_Q14 (scFv, V domains shown, yeast-display scFv) VH: EVQLVESGGGLVQPGGSLRLSCAASGFTISSSYIHWVRQAPGKGLEWVAYISPSYGSTSYADSVKGRFTISADTSKNTAYLQMNSLRAEDTAVYYCARESITMSPDYWGQGTLVTVSS VL: DIQMTQSPSSLSASVGDRVTITCRASQSVSSAVAWYQQKPGKAPKLLIYSASSLYSGVPSRFSGSRSGTDFTLTISSLQPEDFATYYCQQYSSWPITFGQGTKVEIKR | binds | – |
| EO_Q04 (scFv, V domains shown, yeast-display scFv) VH: EVQLVESGGGLVQPGGSLRLSCAASGFTISSSYIHWVRQAPGKGLEWVAYISPSYGSTSYADSVKGRFTISADTSKNTAYLQMNSLRAEDTAVYYCARESVTMTKDYWGQGTLVTVSS VL: DIQMTQSPSSLSASVGDRVTITCRASQSVSSAVAWYQQKPGKAPKLLIYSASSLYSGVPSRFSGSRSGTDFTLTISSLQPEDFATYYCQQYSDWPITFGQGTKVEIKR | binds | – |
| EO_Q11 (scFv, V domains shown, yeast-display scFv) VH: EVQLVESGGGLVQPGGSLRLSCAASGFTISSSYIHWVRQAPGKGLEWVAYISPSYGSTSYADSVKGRFTISADTSKNTAYLQMNSLRAEDTAVYYCARELVTMTIDYWGQGTLVTVSS VL: DIQMTQSPSSLSASVGDRVTITCRASQSVSSAVAWYQQKPGKAPKLLIYSASSLYSGVPSRFSGSRSGTDFTLTISSLQPEDFATYYCQQYSGWPITFGQGTKVEIKR | binds | – |
| EO_Q13 (scFv, V domains shown, yeast-display scFv) VH: EVQLVESGGGLVQPGGSLRLSCAASGFTISSSYIHWVRQAPGKGLEWVAYISPSYGSTSYADSVKGRFTISADTSKNTAYLQMNSLRAEDTAVYYCARELTTMTADYWGQGTLVTVSS VL: DIQMTQSPSSLSASVGDRVTITCRASQSVSSAVAWYQQKPGKAPKLLIYSASSLYSGVPSRFSGSRSGTDFTLTISSLQPEDFATYYCQQYSHWPITFGQGTKVEIKR | binds | – |
| EO_Q07 (scFv, V domains shown, yeast-display scFv) VH: EVQLVESGGGLVQPGGSLRLSCAASGFTISSSYIHWVRQAPGKGLEWVAYISPSYGSTSYADSVKGRFTISADTSKNTAYLQMNSLRAEDTAVYYCARELTTMSIDYWGQGTLVTVSS VL: DIQMTQSPSSLSASVGDRVTITCRASQSVSSAVAWYQQKPGKAPKLLIYSASSLYSGVPSRFSGSRSGTDFTLTISSLQPEDFATYYCQQYAKWPITFGQGTKVEIKR | binds | – |
| IBA1-4 (antibody, V domains shown, phage-display clone) VH: EVQLVESGGGLVQPGGSLRLSCAASGFTVSSSSIHWVRQAPGKGLEWVASIYSYSGSTYYADSVKGRFTISADTSKNTAYLQMNSLRAEDTAVYYCARQYSSSYYVWPGMDYWGQGTLVTVSS VL: DIQMTQSPSSLSASVGDRVTITCRASQSVSSAVAWYQQKPGKAPKLLIYSASSLYSGVPSRFSGSRSGTDFTLTISSLQPEDFATYYCQQYHYWASLITFGQGTKVEIKR | – | binds |
